For assay [1], the target named is T1, mouse CD45 on the surface of mouse T cells (mouse, UniProt P06800 26-1293).
T1 construct: whole, on cells
T1 sequence (looked up): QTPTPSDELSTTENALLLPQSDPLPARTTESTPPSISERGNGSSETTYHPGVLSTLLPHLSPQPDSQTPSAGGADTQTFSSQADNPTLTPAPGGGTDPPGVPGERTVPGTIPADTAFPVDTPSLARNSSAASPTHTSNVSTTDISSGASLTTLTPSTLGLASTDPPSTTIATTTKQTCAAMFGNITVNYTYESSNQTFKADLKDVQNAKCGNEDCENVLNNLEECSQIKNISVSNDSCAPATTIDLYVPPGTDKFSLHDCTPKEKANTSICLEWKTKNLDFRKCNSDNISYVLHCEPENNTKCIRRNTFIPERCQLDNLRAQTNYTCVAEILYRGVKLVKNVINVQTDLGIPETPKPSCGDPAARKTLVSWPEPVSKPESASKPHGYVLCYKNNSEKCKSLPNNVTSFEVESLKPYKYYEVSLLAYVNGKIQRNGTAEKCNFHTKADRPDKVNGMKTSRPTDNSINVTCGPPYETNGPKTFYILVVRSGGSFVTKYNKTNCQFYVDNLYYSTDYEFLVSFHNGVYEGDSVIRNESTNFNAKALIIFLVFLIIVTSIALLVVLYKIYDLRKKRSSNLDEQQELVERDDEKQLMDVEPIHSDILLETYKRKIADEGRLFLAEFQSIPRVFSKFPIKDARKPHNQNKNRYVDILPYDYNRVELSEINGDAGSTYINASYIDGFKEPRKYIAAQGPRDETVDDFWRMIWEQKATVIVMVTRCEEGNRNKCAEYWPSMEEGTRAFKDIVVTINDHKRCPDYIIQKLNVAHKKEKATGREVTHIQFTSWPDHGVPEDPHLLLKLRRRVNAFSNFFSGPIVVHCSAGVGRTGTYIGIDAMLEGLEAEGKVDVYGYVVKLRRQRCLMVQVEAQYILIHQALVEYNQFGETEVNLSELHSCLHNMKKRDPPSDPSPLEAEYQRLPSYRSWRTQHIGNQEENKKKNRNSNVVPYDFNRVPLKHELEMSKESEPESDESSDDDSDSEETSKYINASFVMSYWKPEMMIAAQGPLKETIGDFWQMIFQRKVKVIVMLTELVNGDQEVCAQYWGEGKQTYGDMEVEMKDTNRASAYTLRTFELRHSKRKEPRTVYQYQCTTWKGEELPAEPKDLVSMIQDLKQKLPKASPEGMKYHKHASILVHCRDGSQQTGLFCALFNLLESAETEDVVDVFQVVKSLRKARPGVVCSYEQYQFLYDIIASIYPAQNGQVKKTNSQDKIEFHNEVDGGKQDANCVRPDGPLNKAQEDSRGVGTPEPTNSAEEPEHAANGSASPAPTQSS
Briefly: pulse incubation at 125 nM on activated mouse CD8 T cells, anti-mouse IL-12 staining by flow cytometry (FIG. 32). The protocol: We evaluated the ability of tethered fusions comprising an antibody specific for mouse CD45 and the mouse scIL-12p70 cytokine to facilitate loading and persistence of IL-12 on the surface of mouse T cells. Prior to incubation with the mouse IL12-TFs, mouse CD8 T cells were isolated from Pmel mice, activated for two days using antibodies against mouse CD3 and CD28 receptors, and then expanded in the presence of IL-21 for two days. Briefly, isolated CD8 T cells were incubated in full medium (containing RPMI 1640, 10% FBS, insulin-transferrin-selenium, penicillin/streptomycin, and 50 uM beta-mercaptoethanol) in Nunc HighBind plates that were previously coated with antibodies against mouse CD3 and CD28 receptors; the CD3 and CD28 antibodies were coated at concentrations of 0.5 ug/mL and 5 ug/mL, respectively. After approximately 24 hr incubation on the antibody-coated plates IL-2 and IL-7 were added to a final concentrations of 20 ng/mL and 0.5 ng/mL respectively. After a second day of incubation, cells were recovered from the antibody-coated plates and diluted to a density of approximately 200,000 cells/mL into medium containing IL-21 at a final concentration of 20 ng/mL. […] On Days 0, 1, 3, and 5 after the pulse incubation cells were immunostained using antibodies specific to mouse IL-12 and analyzed on a FACSCelesta using Diva Software; data was analyzed using FlowJo. […]

The target of assay [2] is T2, human CD45 receptor on the surface of human T cells (human, UniProt P08575 26-1306).
T2 construct: whole, on cells; also called cellular CD45; leukocyte common antigen
T2 sequence (looked up): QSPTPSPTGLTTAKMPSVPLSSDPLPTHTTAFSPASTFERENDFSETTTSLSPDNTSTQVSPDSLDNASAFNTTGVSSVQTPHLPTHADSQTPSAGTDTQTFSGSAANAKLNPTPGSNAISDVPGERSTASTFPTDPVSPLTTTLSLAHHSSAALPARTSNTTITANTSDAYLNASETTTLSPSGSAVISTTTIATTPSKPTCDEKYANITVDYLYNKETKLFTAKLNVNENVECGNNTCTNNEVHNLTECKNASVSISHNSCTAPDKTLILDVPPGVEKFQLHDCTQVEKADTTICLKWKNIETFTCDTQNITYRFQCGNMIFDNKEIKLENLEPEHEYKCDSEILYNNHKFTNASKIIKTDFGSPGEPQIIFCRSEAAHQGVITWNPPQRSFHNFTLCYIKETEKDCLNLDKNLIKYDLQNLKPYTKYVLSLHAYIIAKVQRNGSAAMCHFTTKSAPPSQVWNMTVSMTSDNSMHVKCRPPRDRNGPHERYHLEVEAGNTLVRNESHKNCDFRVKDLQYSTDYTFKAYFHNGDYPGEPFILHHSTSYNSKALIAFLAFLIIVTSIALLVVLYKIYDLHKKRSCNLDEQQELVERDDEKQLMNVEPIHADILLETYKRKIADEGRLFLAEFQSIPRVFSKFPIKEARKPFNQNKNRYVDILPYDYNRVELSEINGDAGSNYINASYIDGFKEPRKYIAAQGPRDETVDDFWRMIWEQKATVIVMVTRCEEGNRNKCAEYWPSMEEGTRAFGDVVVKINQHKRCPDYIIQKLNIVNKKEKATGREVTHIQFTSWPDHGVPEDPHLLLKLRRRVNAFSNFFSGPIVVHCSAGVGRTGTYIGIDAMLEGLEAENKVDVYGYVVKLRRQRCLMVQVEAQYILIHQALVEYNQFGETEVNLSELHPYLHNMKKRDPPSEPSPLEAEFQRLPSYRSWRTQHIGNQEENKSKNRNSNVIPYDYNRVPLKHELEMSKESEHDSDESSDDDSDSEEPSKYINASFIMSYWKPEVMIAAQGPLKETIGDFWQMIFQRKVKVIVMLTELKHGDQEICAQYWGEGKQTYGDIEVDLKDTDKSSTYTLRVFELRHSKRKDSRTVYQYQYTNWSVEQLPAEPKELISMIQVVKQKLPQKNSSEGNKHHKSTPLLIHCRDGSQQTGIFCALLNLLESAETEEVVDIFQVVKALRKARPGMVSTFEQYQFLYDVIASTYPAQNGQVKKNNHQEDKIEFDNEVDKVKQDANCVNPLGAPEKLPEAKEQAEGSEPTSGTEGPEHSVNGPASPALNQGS
In words: flow cytometry titration on activated primary human CD8 T cells, anti-human IgG-Fc detection. From the text: To evaluate whether anti-CD45 antibodies other than BC8 are capable of generating IFMs with improved potency, we evaluated two additional anti-CD45 monoclonal antibodies (mAb clones 9.4 and 4B2). We first evaluated the binding affinities of chimeric IgG forms of these antibodies to CD45 expressed on the surface of activated CD8 T cells. The chimeric antibodies each comprise mouse variable domains and human constant region (human constant kappa domain and human IgG4 containing an S228P mutation to stabilize the IgG4 hinge region). For comparison with previous results we evaluated these antibodies alongside chBC8, hBC8(23), and a non-binding variant hBC8-null. The humanized BC8 antibody consists of variable domains containing CDR regions grafted from BC8, and the hBC8-null variant contains an SGGGS substitution in the heavy-chain CDR3, which ablates binding to CD45 (FIG. 10A). […]
Cell binding assay. […] Cells were washed with MACS buffer (PBS, 2% FBS, 1 mM EDTA) three times, and antibody binding was detected using a PE-conjugated anti-human IgG-Fc antibody (BioLegend, cat. no. HP6017) for 20 min. at 4° C. […]
Background: A flow cytometer gives signals particle by particle.

Here are results for two molecules from patent US20200330514A1 (TORQUE THERAPEUTICS, published 2020).

B1: chM1Fab-M1scFv-scIL-12p70 (other)
heavy: QVNLLQSGAALVKPGASVKLSCKASGYTFTDYYIHWVKQSHGKSLEWVAYINPDRDYTNYNEKFKSKATLTVDKSTNTAYMELSRLTSEDSATFYCTRRLYDGAYYYSWFAYWGQGTLVTVSSASTKGPSVFPLAPSSKSTSGGTAALGCLVKDYFPEPVTVSWNSGALTSGVHTFPAVLQSSGLYSLSSVVTVPSSSLGTQTYICNVNHKPSNTKVDKKVEPKSCGGGGSGGGGSGGGGSQVNLLQSGAALVKPGASVKLSCKASGYTFTDYYIHWVKQSHGKSLEWVAYINPDRDYTNYNEKFKSKATLTVDKSTNTAYMELSRLTSEDSATFYCTRRLYDGAYYYSWFAYWGQGTLVTVSSGGGGSGGGGSGGGGSGGGGSDIQMTQSPHSLSASLGETVSIECLASEGISNYLAWYQQKPGKSPQLLIYYGSRLQDGVPSRFSGSGSGTQYSLRITNMQPEDEGVYYCQQGYKYPYTFGAGTKLELK
light: DIQMTQSPHSLSASLGETVSIECLASEGISNYLAWYQQKPGKSPQLLIYYGSRLQDGVPSRFSGSGSGTQYSLRITNMQPEDEGVYYCQQGYKYPYTFGAGTKLELKRTVAAPSVFIFPPSDEQLKSGTASVVCLLNNFYPREAKVQWKVDNALQSGNSQESVTEQDSKDSTYSLSSTLTLSKADYEKHKVYACEVTHQGLSSPVTKSFNRGECGGGGSGGGGSGGGGSMWELEKDVYVVEVDWTPDAPGETVNLTCDTPEEDDITWTSDQRHGVIGSGKTLTITVKEFLDAGQYTCHKGGETLSHSHLLLHKKENGIWSTEILKNFKNKTFLKCEAPNYSGRFTCSWLVQRNMDLKFNIKSSSSSPDSRAVTCGMASLSAEKVTLDQRDYEKYSVSCQEDVTCPTAEETLPIELALEARQQNKYENYSTSFFIRDIIKPDPPKNLQMKPLKNSQVEVSWEYPDSWSTPHSYFSLKFFVRIQRKKEKMKETEEGCNQKGAFLVEKTSTEVQCKGGNVCVQAQDRYYNSSCSKWACVPCRVRSGGGGSGGGGSGGGGSGGGGSRVIPVSGPARCLSQSRNLLKTTDDMVKTAREKLKHYSCTAEDIDHEDITRDQTSTLKTCLPLELHKNESCLATRETSSTTRGSCLPPQKTSLMMTLCLGSIYEDLKMYQTEFQAINAALQNHNHQQIILDKGMLVAIDELMQSLNHNGETLRQKPPVGEADPYRVKMKLCILLHAFSTRVVTINRVMGYLSSA
B1: in assay [1], the binding result is reported as “binds”.

B2: hBC8-null humanized BC8 antibody with SGGGS substitution in CDR-H3 (IgG form) (antibody, V domains shown)
VH: EVQLVESGGGLVQPGGSLRLSCAASGFDFSRYWMSWVRQAPGKGLEWIGEINPTSSTINFADSVKGRFTISRDNAKNSLYLQMNSVRDEDTAVYYCARGSGGGSGDAMDYWGQGTLVTVSS
VL: EIVLTQSPATLSLSLGERATISCRASKSVSTSGYSYLHWYQQKPGQAPKLLIYLASNRATGVPARFSGSGPGTDFTLTISSLEPEDFATYYCQHSRELPFTFGQGTKLEIK
notes: constant regions of the tested antibody not spelled out; also called hBC8(23)-null
As to B2, the binding result in assay [2] is “no binding (tested: 500 nM)”.
